Experimental data as given in patent publication US6365126.

Biological target: H-Ras, P01112
Sequence (P01112 whole entry, looked up): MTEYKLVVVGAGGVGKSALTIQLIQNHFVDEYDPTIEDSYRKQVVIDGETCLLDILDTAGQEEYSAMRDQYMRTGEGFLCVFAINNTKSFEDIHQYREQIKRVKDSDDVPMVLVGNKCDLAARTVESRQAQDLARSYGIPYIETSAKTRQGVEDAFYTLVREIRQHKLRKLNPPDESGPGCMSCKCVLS

Protein | GTPase activity of H-Ras (GAP assay)
Drosophila NF1 catalytic domain (amino acids 1,235-1,614) bacterial fusion protein (protein) TEFDTLAETVLADRFEQLVQLVTMISDKGELPIAMALANVVTTSQMDELARVLVTLFDAKHLLSPLLWNMFYREVEVSDCMQTLFRGNSLGSKIMAFCFKIYGASYLQMLLEPLIRPLLDEEEETCFEVDPARLDPTEDIEQHRNNLIALTQKVFDAIINSSDRFPPQLRSMCHCLYQVLSKRFPNLLQNNIGAVGTVIFLRFINPAIVSPQELGIVDKQVHSSAKRGLMLMSKILQNIANHVEFSKEQHMLCFNDFLRDHFEAGRRFFIQIASDCETVDQTSHSMSFISDANVLALHRLLWTHQEKIGDYLSSSRDHKAVGRRPFDKMATLLAYLGPPEHKPVDSHMMFSSYARWSSIDMSSTNFEEIMVKHQMHEKEE | All three fusion proteins stimulated the GTPase activity of H-Ras
human p120GAP catalytic domain fusion protein (protein) MEKIMPEEEYSEFKELILQKELHVVYALSHVCGQDRTLLASILLRIFLHEKLESLLLCTLNDREISMEDEATTLFRATTLASTLMEQYMKATATQFVHHALKDSILKIMESKQSCELSPSKLEKNEDVNTNLTHLLNILSELVEKIFMASEILPPTLRYIYGCLQKSVQHKWPTNTTMRTRVVSGFVFLRLICPAILNPRMFNIISDSPSPIAARTLILVAKSVQNLANLVEFGAKEPYMEGVNPFIKSNKHRMIMFLDELGNVPELPDTTEHSRTDLSRDLAALHEICVAHSDELRTLSNERGAQQHVLKKLLAITELLQQKQNQYTKTNDVR | All three fusion proteins stimulated the GTPase activity of H-Ras
